# B1: nucleotide binding domain of PfHsp70-1 (PfHsp70-1NBD) (domain or fragment)
# chain: not shown
# modifications: assayed without nucleotide or with ADP/ATP; N-terminal His6 tag from pQE30 left out. Locus PF3D7_0818900 (cytosolic PfHsp70-1, UniProt Q8IB24) is from memory, not given; NBD limits are
# Key:
# [1] = biological target: T1, recombinant Plasmodium falciparum Hsp70-z (PfHsp70-z) (Plasmodium falciparum); assay: SPR; ProteOn XPR36, ligand amine-coupled to GLC chip, analyte 125-2000 nM at 50 μl/min, PBS-Tween with 20 mM EDTA pH 7.4, 25 °C, Langmuir fit; with 5 mM ADP; conditions: both partners purified
# T1 construct: also called PfHsp110c; PfHsp110; not shown: His6, N-terminal, kept
# [2] = biological target: T1, recombinant Plasmodium falciparum …; assay: SPR; ProteOn XPR36, ligand amine-coupled to GLC chip, analyte 125-2000 nM at 50 μl/min, PBS-Tween with 20 mM EDTA pH 7.4, 25 °C, Langmuir fit; with 5 mM ATP; conditions: both partners purified
binder,measurement,setting,value
B1,Kd,[1],98.6 nM
same,koff,[1],0.00026 s⁻¹
same,kon,[1],2630 M⁻¹ s⁻¹
same,Kd,[2],2.12 nM
same,koff,[2],9.43e-06 s⁻¹
same,kon,[2],4460 M⁻¹ s⁻¹

# Source: PMC4837182, “Plasmodium falciparum Hsp70-z, an Hsp110 homologue, exhibits independent chaperone activity and interacts with Hsp70-1 in a nucleotide-dependent fashion” (Cell Stress & Chaperones, 2016)
